Test results: publication PMC4801485 (Biochemistry, 2015)
Entries after “also recorded” stand apart in the source; their conditions may differ. Where no end group is shown, it is not given here.

What was measured:
CypA [1] = molecular target: T1, CypA (Homo sapiens, UniProt P62937); conditions: cited from earlier work
CypA [2] = molecular target: T1, CypA; assay: 15N TROSY CPMG-RD of ligand-saturated CypA; assay type: biochemical
CypA [3] = molecular target: T1, CypA; conditions: percent weaker than GSFGPDLRAGD; cited from earlier work
[4] = 2H,15N CypA, saturating TA-peptide (6 mM), 10 °C

T1 sequence (P62937 whole entry): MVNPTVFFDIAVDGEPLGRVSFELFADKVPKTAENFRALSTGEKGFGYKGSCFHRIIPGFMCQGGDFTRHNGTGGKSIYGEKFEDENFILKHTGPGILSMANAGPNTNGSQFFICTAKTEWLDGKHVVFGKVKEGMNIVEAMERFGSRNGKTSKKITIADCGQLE

Substance | isomerization by CypA (CypA [1]) | chemical exchange rate throughout most of the active site (CypA [2]; [4]) | rate of motions, loop residues ~65–78 and ~108–110 (CypA [2]; [4]) | active site dynamics as compared to CypA:peptide complex (CypA [2]; 2H,15N CypA, saturating TA-peptide, much of the active site) | binding relative to the standard GSFGPDLRAGD peptide (weaker) (CypA [3]) | exchange throughout most of the active site (CsA) (CypA [2]; 2H,15N CypA (0.5 mM), CsA 0.7 mM, 10 °C)
TA-peptide: substrate for which the G-P peptide bond in the peptide is replaced by a thioamide bond (GSFGPDLRAGD; also: G-P peptide bond replaced by thioamide bond) | not isomerized by CypA | ~ 300 s^−1 | ~ 2000 s^−1 | slowed dramatically | ~ 50% | –
cyclosporine A [CsA, reference compound] | – | – | – | – | – | quenched by CsA throughout most of the active site; also recorded: completely quenched
